Assay results: publication PMC8428690
Read-outs that look alike come from different tables or passages of the source.

Assays:
[1] = target: H6-spTorA-mCherry (E. coli | not stated); assay: SEC; substrate (~7 μM) mixed with TorD 1:1 or 1:2, 10 min at 37°C in FPLC buffer with 5 mM DTT, then Superdex 75 at 4°C; fractions analysed by anti-6xHis Western blot
[2] = target: H6-spTorA-mCherry (E. coli | not stated); assay: SEC; fractions 19-21 of the purified 1:1 TorD/spTorA-mCherry complex pooled, centrifuged and at once re-run on the column (~2.3-3.5 μM total TorD); KD estimated from the ratio of the peaks
[3] = target: TorD-H6 (Escherichia coli TorD, 6xHis tagged) (E. coli) (UniProt P36662); assay: SEC; Ni-NTA purified TorD alone, ~170 μM total load; Superdex 75 10/300 GL, FPLC buffer (5 mM MgCl2, 150 mM NaCl, 25 mM MOPS, 25 mM MES, 25% glycerol, pH 8.0), 5 mM DTT, 4°C; dimer to monomers, KD estimated from the monomer/dimer ratio
[4] = target: spTorA-GFP(Alexa532) (E. coli | not stated); assay: co-sedimentation; competition, apparent KD: spTorA-GFP(Alexa532) 50 nM pre-incubated with various concentrations of TorD (10 min, 37°C), then with Tat++ IMVs (A280 = 5; 10 min, 37°C), pelleted (32,000 g, 4°C, 10 min); IMV-bound precursor by in-gel fluorescence; high-BSA translocation buffer
[5] = target: spTorA-GFP(Alexa532) (E. coli | not stated); assay: as above; remark: listed apart in the source

Sequence of spTorA-GFP(Alexa532) (E. coli | not stated) (P33225 1-39, tags left off): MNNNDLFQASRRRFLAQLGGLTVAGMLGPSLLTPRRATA
Sequence of H6-spTorA-mCherry (E. coli | not stated) (P33225 1-39 limits assumed): as the sequence (P33225 1-39, tags left off) above

stoichiometry N [1]: 1
Kd [2]: 1500 nM
Kd [3]: > 50000 nM
Kd [4]: 800 nM
Kd [5]: 1300 nM
percent inhibition of spTorA-GFP binding to Tat++ IMVs at ~1 μM TorD [5]: 50%
B1: TorD-H6 (Escherichia coli TorD, 6xHis tagged) (natural protein)
chain: MTTLTAQQIACVYAWLAQLFSRELDDEQLTQIASAQMAEWFSLLKSEPPLTAAVNELENRIATLTVRDDARLELAADFCGLFLMTDKQAALPYASAYKQDEQEIKRLLVEAGMETSGNFNEPADHLAIYLELLSHLHFSLGEGTVPARRIDSLRQKTLTALWQWLPEFVARCRQYDSFGFYAALSQLLLVLVECDHQNR
